The results in this text go back to patent US20180022822A1 (MABIMMUNE DIAGNOSTICS, published 2018).

Assay [1] has as its target T1, FAP peptide 521-539 with alanine substitution at position 529 (human).
T1 construct: also called spot 10
T1 peptide: KMILPPQFARSKKYPLLIQ
Nature of the assay: alanine-mutated linear peptides spotted on nitrocellulose. Here is the method: (§1) Binding capacity of the antibodies was tested on these peptides spotted onto a nitrocellulose membrane (JPT Peptide Technologies, Berlin, Germany) and using HRP-conjugated donkey anti-human IgG secondary antibody (Jackson immunoResearch, Newmarket, UK) followed by detection of HRP activity (FIGS. 4A and C). In brief, epitope mapping was performed using scans of overlapping peptides. The entire sequences of FAP were synthesized as a total of 188 linear 15-mer peptides with an 11 amino acid overlap between individual peptides. Those peptides were spotted onto nitrocellulose membranes (JPT Peptide Technologies, Berlin, Germany). The membrane was activated for 5 min in methanol and washed in TBS for 10 min at RT. Non-specific binding sites were blocked for 2 h at RT with Roti®-Block (Carl Roth GmbH+Co. KG, Karlsruhe, Germany). Human antibodies (1 μg/ml) were incubated in Roti®-Block for 3 h at RT. Binding of primary antibody was determined using HRP-conjugated donkey anti-human IgG secondary antibody. Blots were developed and evaluated using ECL and ImageQuant 350 detection (GE Healthcare, Otelfingen, Switzerland).

The target in assay [2] is T2, FAP peptide 521-539 with alanine substitution at position 532 (human).
T2 construct: also called spot 13
T2 peptide: KMILPPQFDRSAKYPLLIQ
The description is as above. Here is the method: as §1

For assay [3], the target named is T3, recombinant human Dipeptidyl Peptidase IV (DPPIV) (human, UniProt P27487 29-766, limits assumed).
T3 construct: Bought active enzyme; also called rhDPPIV; DPP4
The experiment in a line: sandwich ELISA: F19 coated as capture antibody, homologue titrated, HRP-labelled NI-206.82C2 as detection antibody; no signal means that no F19/antigen/82C2 sandwich formed. Here is the method: (§2) The coating solution was removed and the plate was blocked with 40 μL 2% BSA in PBS blocking buffer for 1 h at room temperature and then discarded. 30 uL sample solution was then added. Sample solutions included recombinant human FAP standard (FIG. 17A), human serum at varying dilutions (FIG. 17B), FAP homologues (FIG. 17C), serum samples from healthy patients (FIGS. 18 and 19), serum samples patients with metastatic colorectal cancer (FIG. 18), serum samples from patients with cardiovascular disease (FIG. 19), sodium citrate plasma samples from healthy patients (FIG. 20), and sodium citrate samples from patients with symptomatic carotid atherosclerotic plaques (FIG. 20). Sample solutions were added at a total volume of 30 μL. The plate was washed three times with 40 μL PBS and blotted dry. […] The plate was then washed again three times with 3×PBS and blotted dry. 30 μL TMB (3,3′,5,5′-Tetramethylbenzidine) solution was then added to each well and allowed to develop for 5-10 minutes at room temperature. The reaction was then stopped by the addition of 30 μL 1M H2SO4, and absorbance at 450 nm was read with a plate reader.
For orientation: ELISA stands for enzyme-linked immunosorbent assay.

Assay [4] has as its target T4, recombinant human Dipeptidyl Peptidase 9 (DPP9) (human, UniProt Q86TI2 1-863, limits assumed).
T4 construct: Bought active enzyme; also called rhDPP9
Described as above. Here is the method:
as §2

For assay [5], the target named is T5, recombinant human Prolyl Oligopeptidase/Prolyl Endopeptidase (POP/PREP) (human, UniProt P48147 1-710).
T5 construct: Bought active enzyme; also called rhPOP/PREP; BPS Bioscience 80105
T5 sequence (looked up): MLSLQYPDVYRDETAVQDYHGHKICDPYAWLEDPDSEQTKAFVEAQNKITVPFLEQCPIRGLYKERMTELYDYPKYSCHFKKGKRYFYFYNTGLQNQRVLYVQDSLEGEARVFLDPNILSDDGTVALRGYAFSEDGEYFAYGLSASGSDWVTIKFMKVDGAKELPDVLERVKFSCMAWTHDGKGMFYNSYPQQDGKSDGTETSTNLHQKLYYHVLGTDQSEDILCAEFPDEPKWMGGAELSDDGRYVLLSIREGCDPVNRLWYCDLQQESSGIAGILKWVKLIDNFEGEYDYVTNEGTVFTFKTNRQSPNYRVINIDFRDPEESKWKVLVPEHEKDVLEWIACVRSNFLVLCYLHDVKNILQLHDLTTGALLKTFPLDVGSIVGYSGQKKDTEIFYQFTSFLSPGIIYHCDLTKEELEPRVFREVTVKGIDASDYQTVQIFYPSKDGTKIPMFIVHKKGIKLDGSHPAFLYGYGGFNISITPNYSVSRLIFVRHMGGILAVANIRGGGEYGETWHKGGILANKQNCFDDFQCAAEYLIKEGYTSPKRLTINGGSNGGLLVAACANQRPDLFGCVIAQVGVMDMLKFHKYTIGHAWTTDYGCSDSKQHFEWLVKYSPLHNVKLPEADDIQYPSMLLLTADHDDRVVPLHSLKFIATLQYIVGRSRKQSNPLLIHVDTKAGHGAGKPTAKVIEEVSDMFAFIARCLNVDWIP
The description is as above. Here is the method: as §2

T4 sequence (Q86TI2 whole entry): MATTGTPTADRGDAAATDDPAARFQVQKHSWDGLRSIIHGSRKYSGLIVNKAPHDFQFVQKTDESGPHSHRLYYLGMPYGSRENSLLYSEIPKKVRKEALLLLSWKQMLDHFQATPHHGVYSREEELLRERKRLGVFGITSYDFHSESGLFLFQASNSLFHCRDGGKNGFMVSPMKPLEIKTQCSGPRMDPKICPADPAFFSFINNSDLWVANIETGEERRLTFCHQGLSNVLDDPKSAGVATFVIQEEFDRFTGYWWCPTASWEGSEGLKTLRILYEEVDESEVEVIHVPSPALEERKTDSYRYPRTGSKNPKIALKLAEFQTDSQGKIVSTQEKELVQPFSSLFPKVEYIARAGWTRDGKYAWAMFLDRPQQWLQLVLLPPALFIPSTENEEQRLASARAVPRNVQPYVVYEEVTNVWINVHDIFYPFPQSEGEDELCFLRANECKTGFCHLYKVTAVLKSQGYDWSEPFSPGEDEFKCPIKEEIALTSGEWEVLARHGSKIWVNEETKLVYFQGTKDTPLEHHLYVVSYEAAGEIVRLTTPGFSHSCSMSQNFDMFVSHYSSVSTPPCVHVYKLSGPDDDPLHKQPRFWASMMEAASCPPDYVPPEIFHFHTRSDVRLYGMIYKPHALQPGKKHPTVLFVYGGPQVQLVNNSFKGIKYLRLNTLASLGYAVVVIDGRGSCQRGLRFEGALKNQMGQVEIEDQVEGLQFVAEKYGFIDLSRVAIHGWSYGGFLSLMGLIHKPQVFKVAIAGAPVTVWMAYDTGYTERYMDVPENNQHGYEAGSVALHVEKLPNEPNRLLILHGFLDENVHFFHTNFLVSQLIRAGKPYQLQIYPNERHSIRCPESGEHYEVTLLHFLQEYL
T3 sequence (P27487 29-766 limits assumed): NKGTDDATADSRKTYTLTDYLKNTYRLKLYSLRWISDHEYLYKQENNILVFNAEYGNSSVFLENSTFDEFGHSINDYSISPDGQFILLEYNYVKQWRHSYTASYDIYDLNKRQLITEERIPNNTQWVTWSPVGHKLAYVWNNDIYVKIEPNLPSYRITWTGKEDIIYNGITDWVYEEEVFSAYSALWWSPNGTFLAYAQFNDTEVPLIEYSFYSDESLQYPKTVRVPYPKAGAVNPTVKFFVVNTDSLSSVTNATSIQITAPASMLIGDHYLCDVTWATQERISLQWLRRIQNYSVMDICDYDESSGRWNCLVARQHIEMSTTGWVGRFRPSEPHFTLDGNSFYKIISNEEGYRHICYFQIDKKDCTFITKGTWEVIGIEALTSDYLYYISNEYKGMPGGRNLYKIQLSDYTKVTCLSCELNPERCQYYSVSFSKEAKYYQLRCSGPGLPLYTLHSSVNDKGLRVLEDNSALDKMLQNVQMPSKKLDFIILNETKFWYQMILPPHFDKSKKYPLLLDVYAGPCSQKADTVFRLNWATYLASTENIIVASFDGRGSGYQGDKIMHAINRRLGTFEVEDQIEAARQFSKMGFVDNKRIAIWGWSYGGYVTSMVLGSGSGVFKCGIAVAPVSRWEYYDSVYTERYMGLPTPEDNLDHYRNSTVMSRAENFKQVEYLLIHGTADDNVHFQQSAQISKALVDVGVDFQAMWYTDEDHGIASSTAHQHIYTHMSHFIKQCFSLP

B1: NI-206.82C2 (antibody, V domains shown)
VH: QVQLQQSGPGLVKPSQTLSLTCAISGDSVSSNSVTWNWIRQSPSRGLEWLGRTYYRSKWYNDYAVSVKGRITINPDTSKNQFYLQLKSVTPEDAAVYYCARDSSILYGDYWGQGTLVTVSS
VL: QAVLTQPSSLSASPGASASLTCTLPSGINVGTYRIFWFQQKPGSPPQYLLSYKSDSDNHQGSGVPSRFSGSKDASANAGILLISGLQSEDEADYYCMIWHSSAWVFGGGTKLTVL
notes: Recombinantly expressed as complete human IgG1 with a lambda light chain; HRP-labelled in the homologue and sandwich ELISAs, Cy5-labelled in flow cytometry; also called HRP-labelled 82C2; Cy5 labelled 82C2
In the case of B1, the binding result in assay [1] is reported as “no binding”; in assay [2], “no binding”; in assay [3], “no binding (tested: 250 ng/mL)”; in assay [4], “no binding (tested: 250 ng/mL)”; in assay [5], “no binding (tested: 250 ng/mL)”.
